Test results reported in paper PMC9352680, “A comprehensive thermodynamic model for RNA binding by the Saccharomyces cerevisiae Pumilio protein PUF4”.

T1: PUF4 RNA-binding domain (Saccharomyces cerevisiae, UniProt P25339 537-888)
T1 sequence: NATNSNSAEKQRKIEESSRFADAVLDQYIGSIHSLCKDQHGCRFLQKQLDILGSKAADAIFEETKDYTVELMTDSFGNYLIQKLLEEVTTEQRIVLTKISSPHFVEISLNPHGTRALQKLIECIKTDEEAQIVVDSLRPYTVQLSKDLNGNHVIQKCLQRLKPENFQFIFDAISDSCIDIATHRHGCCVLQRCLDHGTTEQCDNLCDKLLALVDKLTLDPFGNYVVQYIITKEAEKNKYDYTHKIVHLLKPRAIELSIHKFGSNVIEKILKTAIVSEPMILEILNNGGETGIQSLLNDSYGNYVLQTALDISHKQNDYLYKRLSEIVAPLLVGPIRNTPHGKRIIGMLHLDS


Biological target: T1, PUF4 RNA-binding domain
Test: Mg; RNA-MaP; 20 mM Na-HEPES pH 7.4, 30 mM KOAc, 0.75 mM MgCl2, 0.1% Tween-20, 5% glycerol, 0.1 mg/mL BSA, 2 mM DTT; 25 C; 0.0125-409.6 nM protein
Conditions: tags: N-His6-TEV cleaved; C-SNAP kept, Cy3B-labelled; label: tethered on chip by stalled RNA polymerase

| Binder | Kd [nM] |
| --- | --- |
| UCUCUUCAUGUAUAUAAAUCUCUU (ssRNA) [Id_ii_S1_P3E.2_K3.1_C3.2_[T-1A]_H3.1_A3.1_F3.1_T3.2_[T9A]] | 13.1 |
| UCUCUUAGUAAAUUAUCUCUU (ssRNA) [Ib_S1_P4E.1_K4.1_C4.1_H4.1_[T1A]_A4.1_[T5A]_F4.1_T4.1] | 491 |
| UCUCUUGUUAUAUAUAGUUCUCUU (ssRNA) [Id_ii_S1_P3E.3_K3.2_C3.2_[C-2G]_H3.2_A3.1_F3.1_T3.2_[T9G]_[A10T]] | 12.1 |
| UCUCUUGCUAUAUAUAUGUCUCUU (ssRNA) [Id_ii_S1_P3E.3_K3.2_C3.2_[C-2G]_[T-1C]_H3.2_A3.1_F3.1_T3.2_[A10G]] | 754 |
| UCUCUUCCUGUAUAUAAGUCUCUU (ssRNA) [Id_ii_S1_P3E.2_K3.1_C3.2_[T-1C]_H3.1_A3.1_F3.1_T3.2_[T9A]_[A10G]] | 12.9 |
| UCUCUUCUUGUAUAUAUGUCUCUU (ssRNA) [Id_ii_S1_P3E.2_K3.1_C3.2_H3.1_A3.1_F3.1_T3.2_[A10G]] | 12.2 |
| UCUCUUUGUAUAUAUACCUCUCUU (ssRNA) [Id_ii_S1_P3E.3_K3.2_C3.2_[C-2T]_[T-1G]_H3.2_A3.1_F3.1_T3.2_[T9C]_[A10C]] | 10 |
| UCUCUUUGUAUAUAUAUGUCUCUU (ssRNA) [Id_ii_S1_P3E.3_K3.2_C3.2_[C-2T]_[T-1G]_H3.2_A3.1_F3.1_T3.2_[A10G]] | 4.85 |
| UCUCUUCUUGUAUAUACUUCUCUU (ssRNA) [Id_ii_S1_P3E.2_K3.1_C3.2_H3.1_A3.1_F3.1_T3.2_[T9C]_[A10T]] | 7.04 |
| UCUCUUGUUAUAUAUACGUCUCUU (ssRNA) [Id_ii_S1_P3E.3_K3.2_C3.2_[C-2G]_H3.2_A3.1_F3.1_T3.2_[T9C]_[A10G]] | 55.2 |
| UCUCUUGAUAUAUAUACCUCUCUU (ssRNA) [Id_ii_S1_P3E.3_K3.2_C3.2_[C-2G]_[T-1A]_H3.2_A3.1_F3.1_T3.2_[T9C]_[A10C]] | 1310 |
| UCUCUUGUUAUAUAUACUUCUCUU (ssRNA) [Id_ii_S1_P3E.3_K3.2_C3.2_[C-2G]_H3.2_A3.1_F3.1_T3.2_[T9C]_[A10T]] | 51.5 |
| UCUCUUCCUGUAUAUAUCUCUCUU (ssRNA) [Id_ii_S1_P3E.2_K3.1_C3.2_[T-1C]_H3.1_A3.1_F3.1_T3.2_[A10C]] | 4.74 |
| UCUCUUCCUGUAUAUAUUUCUCUU (ssRNA) [Id_ii_S1_P3E.2_K3.1_C3.2_[T-1C]_H3.1_A3.1_F3.1_T3.2_[A10T]] | 5.94 |
| UCUCUUCAUGUAUAUACCUCUCUU (ssRNA) [Id_ii_S1_P3E.2_K3.1_C3.2_[T-1A]_H3.1_A3.1_F3.1_T3.2_[T9C]_[A10C]] | 17.7 |
| UCUCUUUGCGUAUUAUCUCUU (ssRNA) [Ib_S1_P4E.1_K4.1_C4.1_H4.1_[T3C]_[A4G]_A4.1_F4.1_T4.1] | > 2300 |

| Binder | Kd [nM] |
| --- | --- |
| UCUCUUGUUAUAUAUAAAUCUCUU (ssRNA) [Id_ii_S1_P3E.3_K3.2_C3.2_[C-2G]_H3.2_A3.1_F3.1_T3.2_[T9A]] | 50 |
| UCUCUUCAUGUAUAUAUUUCUCUU (ssRNA) [Id_ii_S1_P3E.2_K3.1_C3.2_[T-1A]_H3.1_A3.1_F3.1_T3.2_[A10T]] | 8.07 |
| UCUCUUCUUGUAUAUACCUCUCUU (ssRNA) [Id_ii_S1_P3E.2_K3.1_C3.2_H3.1_A3.1_F3.1_T3.2_[T9C]_[A10C]] | 7.41 |
| UCUCUUCAUGUAUAUACUUCUCUU (ssRNA) [Id_ii_S1_P3E.2_K3.1_C3.2_[T-1A]_H3.1_A3.1_F3.1_T3.2_[T9C]_[A10T]] | 13.2 |
| UCUCUUUGUAUAUAUAACUCUCUU (ssRNA) [Id_ii_S1_P3E.3_K3.2_C3.2_[C-2T]_[T-1G]_H3.2_A3.1_F3.1_T3.2_[T9A]_[A10C]] | 4.91 |
| UCUCUUCUUGUAUAUAAUUCUCUU (ssRNA) [Id_ii_S1_P3E.2_K3.1_C3.2_H3.1_A3.1_F3.1_T3.2_[T9A]_[A10T]] | 8.3 |
| UCUCUUGGUAUAUAUAGUUCUCUU (ssRNA) [Id_ii_S1_P3E.3_K3.2_C3.2_[C-2G]_[T-1G]_H3.2_A3.1_F3.1_T3.2_[T9G]_[A10T]] | 124 |
| UCUCUUAGUACAUUAUCUCUU (ssRNA) [Ib_S1_P4E.1_K4.1_C4.1_H4.1_[T1A]_A4.1_[T5C]_F4.1_T4.1] | 39.1 |
| UCUCUUCGUAUGUUAUCUCUU (ssRNA) [Ib_S1_P4E.1_K4.1_C4.1_H4.1_[T1C]_A4.1_[A6G]_F4.1_T4.1] | > 2300 |
| UCUCUUCGUACAUUAUCUCUU (ssRNA) [Ib_S1_P4E.1_K4.1_C4.1_H4.1_[T1C]_A4.1_[T5C]_F4.1_T4.1] | 16.8 |
| UCUCUUCAUGUAUAUAUCUCUCUU (ssRNA) [Id_ii_S1_P3E.2_K3.1_C3.2_[T-1A]_H3.1_A3.1_F3.1_T3.2_[A10C]] | 8.05 |
| UCUCUUCUUGUAUAUAGCUCUCUU (ssRNA) [Id_ii_S1_P3E.2_K3.1_C3.2_H3.1_A3.1_F3.1_T3.2_[T9G]_[A10C]] | 4.12 |
| UCUCUUCCUGUAUAUAUAUCUCUU (ssRNA) [Id_ii_S1_P3E.2_K3.1_C3.2_[T-1C]_H3.1_A3.1_F3.1_T3.2] | 3.76 |
| UCUCUUGCUAUAUAUAUCUCUCUU (ssRNA) [Id_ii_S1_P3E.3_K3.2_C3.2_[C-2G]_[T-1C]_H3.2_A3.1_F3.1_T3.2_[A10C]] | 545 |
| UCUCUUCCUGUAUAUAAUUCUCUU (ssRNA) [Id_ii_S1_P3E.2_K3.1_C3.2_[T-1C]_H3.1_A3.1_F3.1_T3.2_[T9A]_[A10T]] | 5.34 |
| UCUCUUUGUAUAUAUAUCUCUCUU (ssRNA) [Id_ii_S1_P3E.3_K3.2_C3.2_[C-2T]_[T-1G]_H3.2_A3.1_F3.1_T3.2_[A10C]] | 3.36 |
